Results taken from publication PMC6415871.

How the values were obtained:
[1] = molecular target: PCV2-His-ΔN45 capsid protein (porcine circovirus type 2) (UniProt O56129); assay: crystal structure; PCV2-His-ΔN45 at ~12 mg/ml, crystals from 2 M ammonium sulfate, 0.1 M citric acid pH 4.6; one icosahedral particle per asymmetric unit; 2.8 Å
[2] = molecular target: full-length PCV2 capsid protein (porcine circovirus type 2) (UniProt O56129); assay: cryo-EM structure; in vitro assembled full-length PCV2 VLP, 300 kV Titan Krios, icosahedral reconstruction at 4.12 Å

PCV2-His-ΔN45 capsid protein (from UniProt O56129 45-233) (domain or fragment)
stoichiometry N [1]: 60 subunits

full-length PCV2 capsid protein (from UniProt O56129 1-233) (natural protein)
stoichiometry N [2]: 60 subunits
